Experimental findings from patent US20180051064A1 (AJOU UNIVERSITY INDUSTRY ACADEMIC COOPERATION FOUNDATION, published 2018) are described below.

Test [1] deals with T1, NRP1-b1b2 (273-586) protein (UniProt O14786 273-586).
T1 construct: range 273-586; Prepared according to Appleton et al. 2007; Biotinylated (Sulfo-NHS-LC-biotin) for the yeast display FACS; unlabelled in ELISA and SPR; also called neuropilin-1 b1b2 protein; biotinylated NRP1-b1b2
Briefly: SPR (Biacore 2000), NRP1-b1b2 immobilised on CM5 chip. The method, then: (§1) Specifically, each of NRP1 and NRP2 b1b2 proteins was diluted in 10 mM Na-acetate buffer (pH 4.0), and immobilized on a CM5 sensor chip (GE healthcare, USA) at about 1000 response units (RU). […] After binding and dissociation analysis, regeneration of the CM5 chip was performed by flushing buffer (20 mM NaOH, 1M NaCl, pH10.0) at a flow rate of 30 μl/min for 1 minute.
(In SPR one partner is held on a chip, and binding of the other changes the refractive index at the surface.)

For test [2], the target named is T1, NRP1-b1b2 (273-586) protein. Briefly: SPR; KD on NRP2-b1b2 divided by KD on NRP1-b1b2. The method, then:
as §1

Test [3] shares this target. Nature of the test: SPR; lower end tied to Fc-TPP8 by Table 5 (65.8). The method, then:
as §1

Test [4] deals with T2, NRP2-b1b2 (275-595) protein (UniProt O60462 275-595).
T2 construct: range 275-595; also called neuropilin-2 b1b2 protein
T2 sequence (looked up): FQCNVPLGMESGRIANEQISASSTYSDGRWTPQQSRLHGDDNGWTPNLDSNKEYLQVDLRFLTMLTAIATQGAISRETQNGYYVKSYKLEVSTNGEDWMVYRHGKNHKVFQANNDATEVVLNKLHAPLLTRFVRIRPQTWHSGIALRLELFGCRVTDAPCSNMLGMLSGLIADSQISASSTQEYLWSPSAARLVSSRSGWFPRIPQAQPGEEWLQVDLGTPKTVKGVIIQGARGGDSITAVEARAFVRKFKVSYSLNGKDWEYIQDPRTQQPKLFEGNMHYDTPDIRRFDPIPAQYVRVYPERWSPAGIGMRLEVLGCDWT
Nature of the test: SPR (Biacore 2000), NRP2-b1b2 immobilised on CM5 chip. The procedure: as §1

In test [5] the target is T1, NRP1-b1b2 (273-586) protein. Briefly: ELISA on immobilised NRP1-b1b2, absorbance at 405 nm [A]. The procedure:
(§2) 1 μg of each of NRP1-b1b2 (273-586) protein, NRP2-b1b2 (275-595) protein and the control group VEGFR2 (46-753) was immobilized in each well of a 96-well EIA/RIA plate (COSTAR Corning In., USA) at room temperature for 1 hour, and then washed three times with 0.1% PBST (0.1% Tween20, pH 7.4, 137 mM NaCl, 10 mM Phosphate, 2.7 mM KCl, SIGMA-ALDRICH co., USA) for 10 minutes. After binding with 5% skim milk (5% Skim milk, pH 7.4, 137 mM NaCl, 10 mM Phosphate, 2.7 mM KCl, SIGMA-ALDRICH co., USA) for 1 hour, each well was washed three times with 0.1% PBST (0.1% Tween20, pH 7.4, 137 mM NaCl, 10 mM Phosphate, 2.7 mM KCl, SIGMA-ALDRICH co., USA) for 10 minutes. […] Each well was bound with AP-conjugated anti-biotin antibody (alkaline phosphatase-conjugated anti-biotin mAb, Sigma, USA), and then reacted with pNPP ([…], SIGMA-ALDRICH co., USA), and the absorbance at 405 nm was measured.

For test [6] the target is unchanged. Nature of the test: ELISA, biotinylated peptide (100 nM) on coated NRP1-b1b2. The method, then: as §2
For test [7] the target is unchanged. Nature of the test: competitive ELISA on NRP1-b1b2; TPP11 peptide varied, blocked ligand RPARPAR [10 µM], relative binding (%) [B]. Background: ELISA stands for enzyme-linked immunosorbent assay.

Where no end group is shown, it is not given here. Fc = antibody heavy-chain constant region Fc (hinge-CH2-CH3)

T1 sequence (O14786 273-586 limits assumed, form in doubt): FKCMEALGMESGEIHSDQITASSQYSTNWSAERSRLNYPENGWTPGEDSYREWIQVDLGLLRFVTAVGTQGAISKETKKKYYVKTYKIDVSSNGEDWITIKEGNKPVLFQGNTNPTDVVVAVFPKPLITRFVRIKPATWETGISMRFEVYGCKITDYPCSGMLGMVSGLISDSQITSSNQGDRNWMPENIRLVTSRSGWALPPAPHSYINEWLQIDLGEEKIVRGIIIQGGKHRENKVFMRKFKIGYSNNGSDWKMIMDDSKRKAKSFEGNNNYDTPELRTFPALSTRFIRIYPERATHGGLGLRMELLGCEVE

B1: Fc-TPP8 fusion protein (Fc fusion, not shown: a dimerising Fc or GST; small tags and cut ends)
chain: Fc-GGGGSGGGGSGGGGSHTPGIATRTPR
modifications: also: Fc letters not given here, disulfide-linked homodimer through Fc hinge
notes: Expressed in HEK293-F and purified on Protein A; disulfide-linked dimer
One may read the Kd as the constant that tells how readily two partners part at equilibrium. In general, EC50 (read off the curve) refers to the midpoint of the concentration-response curve. A higher EC50 (read off the curve) goes with a need for much substance. For the molecule B1, the Kd in test [1] came to 3.85 nM; in test [4] it was 254 nM. Besides, the “Binding Affinity Ratio [(KD for NRP2)/KD for NRP1)]” value in test [2] was 65.8. Besides, the “fold higher affinity for NRP1 than for NRP2” value in test [3] worked out at 60 fold. Also, in test [5], the concentration for a half-maximal effect (EC50 (read off the curve)) is around 3 nM.

B2: Fc-TPP1 fusion protein (Fc fusion, not shown: a dimerising Fc or GST; small tags and cut ends)
chain: Fc-GGGGSGGGGSGGGGSHTPGNSNQFVLTSTRPPR
modifications: also: Fc letters not given here, disulfide-linked homodimer through Fc hinge
notes: as for B1
Consider B2, for which the equilibrium dissociation constant (Kd) in test [1] came out at 1.81 nM; in test [4], 1130 nM. Also, in test [2], the “Binding Affinity Ratio [(KD for NRP2)/KD for NRP1)]” value worked out at 625. For the same molecule, in test [5], the “EC50 (read off the curve)” value is around 0.5 nM.

B3: synthetic peptide TPP11 not fused to Fc (peptide)
peptide: HTPGNSKPTRTPRR
modifications: also: biotinylated for ELISA, position not given here
notes: also called TPP11 peptide; synthesized TPP11 peptide
Take B3: the “fold lower affinity than Fc-TPP11” value in test [6] was found to be 100 fold. The “IC50 (read off the curve)” value in test [7] was around 2000 nM.
